Measured values reported in the nanobody polyreactivity screen of Harvey et al. (2022).

Test: yeast display, Sf9 membrane polyspecificity reagent, FACS + sequencing; frameworks hold sequencing errors
Outline: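 Genes from sorted yeast were amplified by colony PCR, read by MiSeq 2 × 250 sequencing and filtered on CDR length. These cells carried a synthetic nanobody library in Saccharomyces cerevisiae BJ5465 and were sorted by FACS into low and high (top ~1%) gates on anti-HA and streptavidin fluorescence. Polyreactivity is labelled according to the gate of origin.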

| Sequence | polyreactivity (PSR sort gate) |
| --- | --- |
| QVQLVESGGGLVQAGGSLRLSCAASGRTFSGNTMGWYRQAPGKEREFVATISQSGTITSYADSVKGRFTISRDNAKNTVYLQMNSLKPEDTAVYYCAARAVYYSSRGWITRFDYWGQGTQVTVSS | high polyreactivity |
| QVQLVESGGGLVQAGGSLRLSCAASGRTFSGNTMVWYRQAPGKERELVAAITGRGGSTYYADSVKGRFTISRDNAKNTVYLQMNSKKPEDTAVYYCAALRYTFAGRFDYWGQGTQVTVSS | high polyreactivity |
| QVQLVESGGGLVQAGGSLRLSCAASGRTFSGYAMGWYRQAPGKERELVAAIRLSGGSTYYADSVKGRFTISRDNAKNTVYLQMNSLKPEVTAVYYCARYHGFGYDYWGQGTQGTVSS | low polyreactivity |
| QVQLVESGGGLVQAGGSLRLSCAASGRTFSGYAMGWYRQAPGKERELVAAITGRGGSTYYADSVKGRFTISRDNAKNTVYLQMNSLKPEDTAVYYCAAYGIWYRVDYWGQGTQVTVSS | high polyreactivity |
| QVQLVESGGGLVQAGGSLRLSCAASGRTFSGYAMGWYRQAPGKERELVAGITWNGGRTYYADSVKGRFTISRDNAKNTVYLQMNILKPDDTAVYYCYKLGAVYPKYGYWGQGTQVTVSS | high polyreactivity |
| QVQLVESGGGLVQAGGSLRLSCAASGRTFSGYAMGWYRQAPGTERELVAAIDRGDGTNYADSVKGRFTISRDNAKNTVYLQMNSLKPEDTAVYYCAADYSYGSTSHTYTGFDYWGQGTQVTVSS | low polyreactivity |
| QVQLVESGGGLVQAGGSLRLSCAASGRTFSGYPMGWYRPAPGKERELVAAISWSGGSTYYADSVKGRFTISRDNAKNTVYLQMNSLKPEDTAVYYCAAYTYSFRANHDYWGQGTQVTVSS | high polyreactivity |
| QVQLVESGGGLVQAGGSLRLSCAASGRTFSHYAMGWYRQAPGKERELVAGISSGSRTNYADSVKGRFTISRDNAKNTVYLQMNSLKPEDTAVYYCAARTKYLKGGYWGQGTQVTVSS | high polyreactivity |
| QVQLVESGGGLVQAGGSLRLSCAASGRTFSIYAMGLYRQAPGKERELVAAISNGGRTKYADSVKGRFTISRDNAKNTVYLQMNSLKPEDTAVYYCAAETWYVAYGYWGQGTQVTVSS | high polyreactivity |
| QVQLVESGGGLVQAGGSLRLSCAASGRTFSKYAMGWDRPAPGKERELVAGISRSGGSTYYADSVKGRFTISRDNAKNTVYLQMNSLKPEDTAVYYCAKRSVGGTGYYWGQGTQVTVSS | high polyreactivity |
| QVQLVESGGGLVQAGGSLRLSCAASGRTFSKYAMGWYRQAPGKERELVAAIRWSGGSTYYADSVKGRFTISRDNAKNTVYLQMNSLKPEDTAVYYSAKRSRGLKFDYWGLGTQVTVSS | high polyreactivity |
| QVQLVESGGGLVQAGGSLRLSCAASGRTFSNYAMGWYRQAPGKERELVAAISQRGGSTYYADSVKGRFTISRDNAKNTVYLLMNSLKPEDTAVYYCNARQTTATGGTGNYWGQGTQVTVSS | high polyreactivity |
| QVQLVESGGGLVQAGGSLRLSCAASGRTFSNYAMGWYRQAPGKERELVAAISQRGGSTYYADSVKGRFTISRDNAKNTVYLQMNSLKPEDTAVYYCNARQTTATVGTGNYWGQGTQVTVSS | high polyreactivity |
| QVQLVESGGGLVQAGGSLRLSCAASGRTFSPYMGWSRQAPGKERELVAAISKSGGRTYYADSVKWSFTISRDNAKNTVYLQMNSLQPEDTAVYYCATSGNNYYYALYGYWVQGTQVTVSS | low polyreactivity |
| QVQLVESGGGLVQAGGSLRLSCAASGRTFSPYPMGWYRQAPGKERELGAAINWTGGSTYYADSVKGRFTISRDNAKNTVYLQMNSLKPEVTAVYYCNADWWYGYDYWGQGTQVTVSS | low polyreactivity |
| QVQLVESGGGLVQAGGSLRLSCAASGRTFSRYAMGWYRQAPGKERELVAAISWSGGTTHYADSVKGRFTISRDNAKNTVYLQMNSLKPEDTAVYYCNKLRQIEFWGQGTQVTVSS | high polyreactivity |
| QVQLVESGGGLVQAGGSLRLSCAASGRTFSTYAMGWYRQAPGKERELVAAIDSGGGSTYYADSVKGRFTISRDNAKNTVYLQMNSLKPEDTAVYYCARDHYAPLARLRYDYWGQGTQVTVSS | low polyreactivity |
| QVQLVESGGGLVQAGGSLRLSCAASGRTFSTYAMGWYRQAPGKERELVAAITRRGGSTYYADSVKGRFTISRDNAKNTVYLQMNSLKPEDTAVYYCARENPGDSYYDYWGQGTQVTVSS | low polyreactivity |
| QVQLVESGGGLVQAGGSLRLSCAASGRTFSTYVMGWYRQAPGKEREFVAAISTGGGSTYYADSVKGRFTISRDNAKNTVYLQMNSLKPEDTAVYYCAARLKWGWPTYDYWGQGTQVTVSS | high polyreactivity |
| QVQLVESGGGLVQAGGSLRLSCAASGRTFSVNAMGWYREAPGKEREFVAGISYSGNTYYADSVKGRVTISRDNAKKTAYLQMNSLKPEDTAVYYCAARRGYNDGYWGQGTQVTVSS | high polyreactivity |
| QVQLVESGGGLVQAGGSLRLSCAASGRTFSVNAMGWYRQAPGKERELVAAISWDGGSTYYADSVKGRFTISRDTAKNTVYLQMNSLKPEDTAVYYCNKDLYYAYDYWGQGTQVTVSS | low polyreactivity |
| QVQLVESGGGLVQAGGSLRLSCAASGRTFSVNAMGWYRQAPGKERELVATITWSGSSTSYADSVKGRFTISRDNAKNSVDLQMNSLTPEDTAVYYCAADLWTLIYLTDTYGDWGQGTQVTVSS | low polyreactivity |
| QVQLVESGGGLVQAGGSLRLSCAASGRTFSVNDMGWYRQAPGKERELVAAISFSGGSTYYADSVKGRFTISRDNAKNTVYLQMNSLKPEDTAVYYCAAEAYPVRRLNLPGYDYWGQGTQVTVSS | high polyreactivity |
| QVQLVESGGGLVQAGGSLRLSCAASGRTFSVYAMGWYRQAPGKERELVAVIRGRGGRTYYADSVKGRFTISRDNAKNTVYLQMNSLKPEDTAVYYCNAVGQIVYGKQYDYWGQGTQVTVSS | high polyreactivity |
| QVQLVESGGGLVQAGGSLRLSCAASGRTFSVYTMGWYRQAPGKERELVAVISSGGGTDYADSVKGRFTISRDNAKNTVYLQMNSLKPEDTAVYYCAAELRYYLYDVVYIVTYDYWGQGTQVTVSS | low polyreactivity |
| QVQLVESGGGLVQAGGSLRLSCAASGRTFSWNTMGWYRQAPGKEMELVATITWSGTSTYYADSVKGRFTISRDNAKNTDYLQMNSLKPEDTAVYYCAKRRLFPYTISRYDYWGQGTQVTVSS | high polyreactivity |
| QVQLVESGGGLVQAGGSLRLSCAASGRTFSWYAMGWYRPAPGQERELVAAITYSGGNTYYADSVKGRFTISRDNAKNTVYLQMNSLKPEDTAVYYCAKYGVTGQGSWSQRMGYWGQGTQVTVSS | high polyreactivity |
| QVQLVESGGGLVQAGGSLRLSCAASGRTFSWYAMGWYRQAPGKERELVAAITRDGGNTYYADSVKGRFTISRDNAKNTVYLQMNSLKPEDTAVYYCAAAPTTGKRPGYYYWGQGTQVTVSS | high polyreactivity |
| QVQLVESGGGLVQAGGSLRLSCAASGRTFSYYAKGWYRQAPGKESELVSAIRVSGGITYYADSVKGRFTISRDNAKNTVYLQMNTLKPEDTAVYYCNAGVDFIGGRYLTYVYWGQGTQVTVSW | low polyreactivity |
| QVQLVESGGGLVQAGGSLRLSCAASGRTFSYYAMGWYIQAPGKERELVAAINSSGGRTYYADSVKGRFTISRDNAKNTVYLQMNSLKPEDTAVYYCAARSYSTSSHHGYWGQGTQVTVSS | high polyreactivity |
